Experimental data from publication PMC2175346.
Changes are numbered by the printed parent chain.

T1: I-AniI (Aspergillus nidulans, UniProt P03880 237-488)
T1 sequence: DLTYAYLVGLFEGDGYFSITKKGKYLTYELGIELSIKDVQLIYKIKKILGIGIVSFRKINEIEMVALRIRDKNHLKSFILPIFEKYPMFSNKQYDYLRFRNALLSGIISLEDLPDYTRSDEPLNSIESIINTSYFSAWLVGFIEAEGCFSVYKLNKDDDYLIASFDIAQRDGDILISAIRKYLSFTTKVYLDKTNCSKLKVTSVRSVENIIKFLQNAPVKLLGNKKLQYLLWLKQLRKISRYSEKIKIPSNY

T2: I-PpoI (Physarum polycephalum, UniProt Q94702 1-163)
T2 sequence: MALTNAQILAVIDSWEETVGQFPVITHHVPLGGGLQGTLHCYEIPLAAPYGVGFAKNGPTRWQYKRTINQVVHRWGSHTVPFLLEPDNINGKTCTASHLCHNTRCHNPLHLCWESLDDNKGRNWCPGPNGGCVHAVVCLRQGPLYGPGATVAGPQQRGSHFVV

B1: I-AniI WT site (dsDNA)
DNA 1: CCTTCCCTGAGGAGGTTTCTCTGTAAACCCTTCC
DNA 2: GGAAGGGTTTACAGAGAAACCTCCTCAGGGAAGG
B2: I-AniI WT-OPT site (dsDNA)
DNA 1: B1 DNA 1 with T18A, A25T
DNA 2: B1 DNA 2 with T10A, A17T
B3: I-PpoI LL palindrome (dsDNA)
DNA 1: GGGGGTGCAGTGACTCTCTTAAGAGAGTCAGACGTGGGGG
DNA 2: CCCCCACGTCTGACTCTCTTAAGAGAGTCACTGCACCCCC
B4: I-PpoI RR palindrome (dsDNA)
DNA 1: GGGGGTGCAGTGGCTACCTTAAGGTAGCCAGACGTGGGGG
DNA 2: CCCCCACGTCTGGCTACCTTAAGGTAGCCACTGCACCCCC

Tests used:
I-AniI = biological target: T1, I-AniI; test: ITC
I-PpoI = biological target: T2, I-PpoI; test: ITC

| Binder | Kd (I-AniI) [µM] | Kd (I-PpoI) [µM] |
| --- | --- | --- |
| B1 | 0.096 ± 0.01 |  |
| B2 | 0.008 ± 0.001 |  |
| B3 |  | 0.087 ± 0.0088 |
| B4 |  | 0.023 ± 0.0016 |
